For orientation: EC50 means the concentration giving half of the maximal effect. The low end stands for an effect from little substance, the high end for a need for much substance.

The target in one assay is T1, human B7-H3 (human, UniProt Q5ZPR3 29-534).
T1 construct: whole, on cells; Endogenous protein detected in FFPE cells and tissues by IHC, and as a 110 kDa band in SDS-PAGE-fractionated cell lysates by Western blot; also called B7-H3 polypeptide
T1 sequence (looked up): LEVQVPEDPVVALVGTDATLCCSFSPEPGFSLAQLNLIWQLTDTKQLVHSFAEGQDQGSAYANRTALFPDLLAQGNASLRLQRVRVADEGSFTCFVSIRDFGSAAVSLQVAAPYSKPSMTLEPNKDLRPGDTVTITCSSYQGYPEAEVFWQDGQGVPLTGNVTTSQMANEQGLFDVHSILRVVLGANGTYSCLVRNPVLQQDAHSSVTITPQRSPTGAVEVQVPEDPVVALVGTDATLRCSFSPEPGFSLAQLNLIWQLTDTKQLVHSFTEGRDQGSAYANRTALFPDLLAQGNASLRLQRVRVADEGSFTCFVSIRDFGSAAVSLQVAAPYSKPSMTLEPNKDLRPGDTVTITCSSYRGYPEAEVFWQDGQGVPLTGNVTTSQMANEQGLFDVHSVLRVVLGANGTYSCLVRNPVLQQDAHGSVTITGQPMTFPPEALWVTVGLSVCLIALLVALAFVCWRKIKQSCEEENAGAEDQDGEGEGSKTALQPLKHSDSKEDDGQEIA
Nature of the assay: IHC on FFPE samples. As to the method:
Rabbit anti-human B7-H3 monoclonal antibodies SP265 and S10H50L58 were applied onto formalin-fixed paraffin embedded (FFPE) tissue samples to assess the staining patterns of these antibodies. Tissue samples include Hs700t (positive control), kidney (negative control) and renal cell carcinoma (positive control). IHC was performed on BenchMark Ultra (Ventana Medical Systems) using mild CC1 cell conditioning with OptiView detection kit.

The target in assay [1] is T2, peptide immunogen (human B7-H3 aa 521-534), KHSDSKEDDGQEIA (human, not fully specified).
T2 construct: also called immobilized peptide immunogen
T2 peptide: KHSDSKEDDGQEIA
Nature of the assay: ELISA, antibody on immobilized peptide immunogen. As to the method: ELISA studies were performed with the SP265 antibody to evaluate binding to the immobilized peptide immunogen (human B7-H3 aa 521-534).
On the technique in general: ELISA stands for enzyme-linked immunosorbent assay.

No end group written: not given here.

B1: Rabbit anti-human B7-H3 monoclonal antibody SP265 (antibody, V domains shown)
VH: QSVEESRGGLIKPTDTLTLTCTVSGFSLGSYGVSWVRQAPGNGLEWIGGSGKRGNPYYASWAKSRSTITRNTNLNTVTLKMTSLTAADTATYFCASRAPVVSTSMTFNIWGPGTLVTVSS
VL: AQVPTQTPSPVSAAVGGTVTINCQASQSVYNNKNLSWYQQKPGQPPKLLIYEASTLASGVPSRFSGSGSGTQFALTISGVQCEDAATYYCQGEFTCSGADCGAFGGGTEVVVK
notes: also called SP265 anti-B7-H3 antibody; SP265 B7-H3 antibody
For B1, in the assay with human B7-H3, the binding result is “binds”. In assay [1], this molecule came in with an EC50 of 0.067 nM.

Source of the values: patent US20170073416A1 (SPRING BIOSCIENCE, published 2017).
